Experiment: yeast display, Sf9 membrane polyspecificity reagent, FACS + sequencing; frameworks hold sequencing errors
Method in brief: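 Galactose induction of a Saccharomyces cerevisiae BJ5465 synthetic nanobody display library ran 36–48 hours. The cells were then stained for 1 hour at 4 °C with 10% biotinylated, detergent-solubilized Sf9 membrane reagent, pulled down on streptavidin microbeads and FACS-sorted into low and high (top ~1%) gates on expression and reagent-binding fluorescence. Labels for polyreactivity follow the gate of origin.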

Row | Sequence | polyreactivity (PSR sort gate)
1 | QVQHVESGGGLVQAGGSLRLSCAASGFIFYRYTMVWYRQAHGKERELVAAISQSGGNTYYADSVKGRFTISRDNAKNTVYLLMNSLKPEDTAVYYCNAVYYYYAGNYWGQGTQVTVSS | high polyreactivity
2 | QVQHVESGGGLVQAGGSLRLSCAASGFMFYSYAMGWYRQPPGKEREFVAAITEDGDSSYYADSVKGRFTISRDNAKKTVYLQMNSLKPEDTAVYYCNTDLTFNGTSGDYDYWGQGTQVTVSS | low polyreactivity
3 | QVQHVESGGGLVQAGGSLRLSCAASGFTFAIYGKGWYRQAPGKERELVAAINWSGGRTYYADSVKGRFTISRDNAKNTVYVQMQSLKPDDTAVYYCAARYVSRWYDYEFWGQGTQVTVSS | high polyreactivity
4 | QVQHVESGGGLVQAGGSLRLSCAASGFTFAWNAMGWYRQAPGKERELVAAITWGDNSTYYADSVKGRFTISRDNAKNTVYLQMNSLKPEDTAVYYCAARVTHWYYLFGYDYWGQATQVTVSS | low polyreactivity
5 | QVQHVESGGGLVQAGGSLRLSCAASGFTFFGDYAMGWYRQAPGKERELVAGISVSGGSTYYADSVKGRFTISRDNAKNSVYLQMNSLKPEDTGVYYCAARYSLKGGRYVYWGQGTQVTVSS | high polyreactivity
6 | QVQHVESGGGLVQAGGSLRLSCAASGFTFLNYSMGWYRQAPGKERELVAAISFSTGRTYYADSVKGRFTISRDNAKNTVYLQMNSLKPEDTAVYYCNAERGFSDYWGQGTQVTVSS | high polyreactivity
7 | QVQHVESGGGLVQAGGSLRLSCAASGFTFTAYAMGWYRQAPGKERELVAAISYRGGRTNYAYSVKGRFTISRDNAKNTVYLQMNSLKPEDTAVYYCAARPRISTREMDYWGQGTKVTVSS | high polyreactivity
8 | QVQHVESGGGLVQAGGSLRLSCAASGFTFYSYAMGWYRQSPGKERELVANITIGGSTYADSVKGRFTISRENAKNTVYLQMNSLKPEDTAVYYCAKQYGGRYGYWGQGTQVTVSS | low polyreactivity
9 | QVQHVESGGGLVQAGGSLRLSCAASGGIFSIYTRGWYRQAPGKERELVAAITSGGNTNYADSVKGRFTISRDNAKNTVYLQMNSLKPEDTAVYYCAKTYTEYSVTRSGARMDYWGQGTQVTVSS | low polyreactivity
10 | QVQHVESGGGLVQAGGSLRLSCAASGGIFVANAMGWYRQAPGKERELVAAISRSGGSTYYADSVKGRFTISRDNAKNTVYLQMNSLKPEDTAVYYCAAKSRRQYTVGLTSDYWGQGTQVTVSS | low polyreactivity
11 | QVQHVESGGGLVQAGGSLRLSCAASGGTFRWNAMGWYRQAPGQERELVAAITKSGGSTYYADSVKGRFTISRDNAKNTVYLQMNSLKPEDTAVYYCATDYLRRRDYWGQGTQVTVSS | high polyreactivity
12 | QVQHVESGGGLVQAGGSLRLSCAASGIIFGGNAMGWYRQAPGKERELVAGISGSGASTYYADSVKGRFTISRDNAKNTVYLQMNSLKPEDTAVYYCAADGYPGDDYWGQGTQVTVSS | high polyreactivity
13 | QVQHVESGGGLVQAGGSLRLSCAASGIIFGSNVMGWYRQAPGKERELVAAISYSGASTYYADSVKGRFTISRDNAKNTVYLQMNSLKPEDTAVYYCAADGHRNGYYYHEYDSWGQGTQVTVSS | low polyreactivity
14 | QVQHVESGGGLVQAGGSLRLSCAASGIIFIGNAMGWYRQAPGKEGALVAANTDSGGRTYYADSVKGRFTISRDNAKNSVYLQMNCLKPEDTAVYYCARDRGKNTPYDYWGQGTLVTVSS | low polyreactivity
15 | QVQHVESGGGLVQAGGSLRLSCAASGIIIKFYAMGWYRKAPVKERELVATITFSSGTTYYADSVKGRFTMSRDNAKTTVYFQMNSLKPEDTAVYYCAASTLPAWPYDGPAGPRYDYWGQGTQVTVSS | low polyreactivity
16 | QVQHVESGGGLVQAGGSLRLSCAASGITFSYYAMGWYIQAPGKEREFVAAISWSGGSTYYADSVKGRFTISRDNAKNTVYLQMNSLKPEVTAVYYCAADRYPYGLDYWGQGTQVTVSS | high polyreactivity

Row | Sequence | polyreactivity (PSR sort gate)
17 | QVQHVESGGGLVQAGGSLRLSCAASGLIFSKNVMGWYRQARGKEREFVAAISQRGGSTYYADSVKGRFTISRDNAKNTVYVQMNSLKPEDTAVYYCAADNTVSHEDFWGQGTQVTVSS | high polyreactivity
18 | QVQHVESGGGLVQAGGSLRLSCAASGLIFWLNAMGWYRHEPGKEREMVATITAGGDDTNYADPVKGRFTISRDNAKNTVYLQMNSLKPEDTAVYYCAKSRTRSGHYGYDYWGQGTQVTVSS | low polyreactivity
19 | QVQHVESGGGLVQAGGSLRLSCAASGLILVYYAMGWYRQAPGKERELVAAITPGGSTKYADSVKGRFTISRDNAKNTVYLQMNSLKPEDTAVYYCAVDGDCHEPGNYIYEYDYWGQGTQVTVSS | low polyreactivity
20 | QVQHVESGGGLVQAGGSLRLSCAASGLTFTYYVKGCYRQAPGKERELVAAITVSGGSTYYADSVKGRFTISRDNAKNTVYLQMNSLKPEDTAVYYCAADAYSGYSDYYWGQGTQVTVSS | low polyreactivity
21 | QVQHVESGGGLVQAGGSLRLSCAASGNNVMGWYRQAPGKDRELVGAISWSGTSTYADSVKGRFTISRVNAKNTVYLKMNSLKPEDTAVYYCAAEQQGRNYRAYRRYDYWGQGTQVTVSS | low polyreactivity
22 | QVQHVESGGGLVQAGGSLRLSCAASGNTFSANAMGWYRQAPVKEREFVASITWSGGSTYYADSVKGRFTFSRDNAKNTVYLQMNSLKPEDTAVYYCAAESWFKYDYWGQGTQVTVSS | low polyreactivity
23 | QVQHVESGGGLVQAGGSLRLSCAASGRIFGVYVMGWYRQAPGKERELVAAITGGGSTYYADSVKGRFTISRDNAKNTVYLQMNSLKPEDTAVYYCAARYLVTYGHQQRYYYWGQGTQVTVSS | high polyreactivity
24 | QVQHVESGGGLVQAGGSLRLSCAASGRIFPYYAMGWYRQAPGKEREFVAAITKRGGSTSYADSVKGRFTISRDNAKNTVYLQMNSLKPEDTAVYYCAAAGVYYGVRGTTYAYDYWGQGTQVTVSS | low polyreactivity
25 | QVQHVESGGGLVQAGGSLRLSCAASGRIFRYNAMGWYRQAPGKERELVAAITNGGSTNYADSVKGRFTISRDNAKNTVYLQMNSLKPEDTAVYYCNAQGRRYSQRYYYWGQGTQVTVSS | high polyreactivity
26 | QVQHVESGGGLVQAGGSLRLSCAASGRIFVNYAMGWSRQAPGKERELVAAITYIDSGTYYADSVKGRFTISRDNAKNTVYFQRNSLKPEDTAVYYCAVRLNSDSNRKTQKYGYWGQGTQVTVSS | low polyreactivity
27 | QVQHVESGGGLVQAGGSLRLSCAASGRIFVYYAMGWYRQEPGKERELVATISSGGSTYYADSVKGRFTISRDNAKNTVYLHMNSLKPEDTAVYYCNARDWYLWSTYRSWYDYWGEGTQVTVSS | low polyreactivity
28 | QVQHVESGGGLVQAGGSLRLSCAASGRIFYLNAMGWYREAPGKERELVAAINTSGDSTYYADSVKGRFTISRDNAKNTVYLQMNSLKPVDTAVFYCAAYVIGPDQFIYDYWGQGTQVTVSS | low polyreactivity
29 | QVQHVESGGGLVQAGGSLRLSCAASGRIIYRYAMGWYRQATGKERELVATITWSTTSTYYADSVKGRFTISREYAKNTVYLQMNSLKPVDTAVYYCAASIIPGFRRDPFGYWGQGTQVTVSS | low polyreactivity
30 | QVQHVESGGGLVQAGGSLRLSCAASGRILKPNAMGWYRPAPGKERELVAAIRWRGDITYYADSVKGRFTISRDNAKNTVYLQMNSLKPEDTAVYYCNARTYYRRQKYDYWGQGTKVTVSS | high polyreactivity
31 | QVQHVESGGGLVQAGGSLRLSCAASGRISLSNAMGWYRQAPGKEREFVAAITKRSDRTYYADSVKGRFTISRDNAKNTVYLQMNSLKPEDTAVYYCAAKPLFGTRDDYWGLGTQVTVSS | low polyreactivity
32 | QVQHVESGGGLVQAGGSLRLSCAASGRTFARYTMGWYRQAPGKERELVAVISRSGGSTYYADSVKGRFTISRDNAKNSVYLQMNSVKPEDTAVYYCAAGDFVVSTLEYYYWGQGTQVTVSS | high polyreactivity

— the nanobody polyreactivity screen of Harvey et al. (2022)
